Assay results taken from article PMC5401905, “Regulation of Inducible Potassium Transporter KdpFABC by the KdpD/KdpE Two-Component System in Mycobacterium smegmatis”.

B1: FPC-33 (dsDNA)
DNA 1: ACCGTAAAGAAACCATCAAGGCCGCGTTCGCGG
DNA 2: CCGCGAACGCGGCCTTGATGGTTTCTTTACGGT
B2: FPC-28 (dsDNA)
DNA 1: CCGTAAAGAAACCATCAAGGCCGCGTTC
DNA 2: GAACGCGGCCTTGATGGTTTCTTTACGG
B3: FPC-18 (dsDNA)
DNA 1: AAGAAACCATCAAGGCCG
DNA 2: CGGCCTTGATGGTTTCTT
B4: FPC-22 (dsDNA)
DNA 1: CCGTAAAGAAACCATCAAGGCC
DNA 2: GGCCTTGATGGTTTCTTTACGG

Columns and labels:
[1] = target: T1, KdpE (Mycobacterium smegmatis) (UniProt A0R399); test: competition; conditions: 10 mM Tris pH 7.5 (20 C), 100 mM KCl, 1 mM EDTA, 0.1 mM DTT, 5% glycerol, 0.010 mg/mL BSA, 0.5 mM Na2ATP; 25 C, 1 h; 6% native PAGE in 0.25x TBE
T1 sequence: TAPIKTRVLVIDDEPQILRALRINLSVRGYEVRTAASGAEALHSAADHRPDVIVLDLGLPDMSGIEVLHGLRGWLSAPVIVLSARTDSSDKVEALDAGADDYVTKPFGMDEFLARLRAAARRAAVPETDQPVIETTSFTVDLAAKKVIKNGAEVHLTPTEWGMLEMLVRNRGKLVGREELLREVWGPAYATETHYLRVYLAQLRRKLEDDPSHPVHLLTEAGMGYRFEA

[2] = target: T1, KdpE (Mycobacterium smegmatis); test: EMSA; conditions: 10 mM Tris pH 7.5 (20 C), 100 mM KCl, 1 mM EDTA, 0.1 mM DTT, 5% glycerol, 0.010 mg/mL BSA, 0.5 mM Na2ATP; 25 C, 1 h; 6% native PAGE in 0.25x TBE
[3] = target: T1, KdpE (Mycobacterium smegmatis); test: DNase I footprinting; conditions: 10 mM Tris pH 7.5 (20 C), 100 mM KCl, 1 mM EDTA, 0.1 mM DTT, 5% glycerol, 0.010 mg/mL BSA, 0.5 mM Na2ATP; 25 C, 1 h; 6% native PAGE in 0.25x TBE
KdpE = target: T2, KdpE (Mycobacterium smegmatis, UniProt A0R399 2-230); test: EMSA; 0.5 mM ATP; 10 mM Tris pH 7.5 (20 C), 100 mM KCl, 1 mM EDTA, 0.1 mM DTT, 5% glycerol, 0.010 mg/mL BSA, 0.5 mM Na2ATP; 25 C, 1 h; 6% native PAGE in 0.25x TBE; conditions: protein: recombinant; tags: 6xHis (pET28a); chain copies: 2; blunt
T2 sequence: T1 sequence

| Molecule | binding [1] | binding [2] | binding [3] | binding result (KdpE) |
| --- | --- | --- | --- | --- |
| CCCGAGGCGCCGGCGCCCGGCCGAGCAGGTGCGTCGGGTGTCGGCAGGCGCGGCAGCCCGCGGAGCAAGCAGGGACATGAGCTTCGTCGAGTGGGTCACCCCTCGAACATCCATCAACCGAGCCATGACGACGAGTGTCCTGGCGGAGTCTTGGCCGCTGCTGTACAAACCTTGACGCCGCACTGACAGTCCGTCGGGAACCGCCTGTGCGCCGGCTTCGAACAAACGGTGTCAAATACGGCCGCCGCACCGTAAAGAAACCATCAAGGCCGCGTTCGCGGTCCTGAACTGGGCAGATCC (double strand) [PkdpF 300-bp probe] | binds | binds | binds | – |
| B1 | – | – | – | binds |
| B2 | – | – | – | binds |
| B3 | – | – | – | no binding |
| B4 | – | – | – | binds |
